Reference: patent US20130323786A1
Substitutions are numbered along the chain they refer to.

B1: Li62 variant B12 Fab (VH CDR3 SEQ ID NO:18) (Fab, V domains shown)
VH: EVQLLESGGGLVQPGGSLRLSCAASGFTFSIYPMFWVRQAPGKGLEWVSWIGPSGGITKYADSVKGRFTISRDNSKNTLYLQMNSLRAEDTATYYCAREGQYDWYFDVWGRGTLVTVSS
VL: DIQMTQSPSFLSASVGDSVAITCRASQDISRYLAWYQQRPGKAPKLLIYDASNLQTGVPSRFSGSGSGTDFTFTITSLQPEDFGTYYCQQYDTLHPSFGPGTTVDIK
B2: Li62 variant B01 Fab (VH CDR3 SEQ ID NO:20) (Fab, V domains shown)
VH: B1 VH with D107E, V108L
VL: B1 VL
B3: Li62 variant C10 Fab (VH CDR3 SEQ ID NO:33) (Fab, V domains shown)
VH: B1 VH with Y102F, V108L
VL: B1 VL
B4: Li62 variant C10 Fab (VH CDR3 SEQ ID NO:29) (Fab, V domains shown)
VH: B1 VH with Q101Y, V108L
VL: B1 VL
B5: Li62 variant F06 Fab (VH CDR3 SEQ ID NO:19) (Fab, V domains shown)
VH: B1 VH with Q101D, V108L
VL: B1 VL
B6: Li62 variant D12 Fab (VH CDR3 SEQ ID NO:22) (Fab, V domains shown)
VH: B1 VH with Q101H, V108L
VL: B1 VL
B7: Li62 variant H08 Fab (VH CDR3 SEQ ID NO:28) (Fab, V domains shown)
VH: B1 VH with Q101H, D103N, W104G, V108L
VL: B1 VL
B8: Li62 variant F10 Fab (VH CDR3 SEQ ID NO:26) (Fab, V domains shown)
VH: B1 VH with G100S, Q101H, Y102I, W104R, V108L
VL: B1 VL
B9: Li62 variant F01 Fab (VH CDR3 SEQ ID NO:23) (Fab, V domains shown)
VH: B1 VH with Q101R, V108P
VL: B1 VL
B10: Li62 variant B06 Fab (VH CDR3 SEQ ID NO:17) (Fab, V domains shown)
VH: B1 VH with Q101Y, V108Q
VL: B1 VL
B11: Li113 Fab (Li62 variant C02, VH CDR3 SEQ ID NO:30) (Fab, V domains shown)
VH: B1 VH with Q101T, F106L, V108L
VL: B1 VL
B12: Li62 variant D09 Fab (VH CDR3 SEQ ID NO:21) (Fab, V domains shown)
VH: B1 VH with G100A, Q101D, Y102I, Y105F, V108L
VL: B1 VL
B13: Li62 variant G08 Fab (VH CDR3 SEQ ID NO:27) (Fab, V domains shown)
VH: B1 VH
VL: B1 VL
B14: Li62 variant F02 Fab (VH CDR3 SEQ ID NO:24) (Fab, V domains shown)
VH: B1 VH with Q101D, D107G, V108L
VL: B1 VL
B15: Li62 variant H08 Fab (VH CDR3 SEQ ID NO:34) (Fab, V domains shown)
VH: B1 VH with Q101T, V108L
VL: B1 VL
B16: Li62 variant F02 Fab (VH CDR3 SEQ ID NO:32) (Fab, V domains shown)
VH: B1 VH with Q101L, Y102I, Y105F, V108Q
VL: B1 VL
B17: Li62 variant D05 Fab (VH CDR3 SEQ ID NO:31) (Fab, V domains shown)
VH: B1 VH with Q101Y, D107E, V108L
VL: B1 VL
B18: Li62 variant F06 Fab (VH CDR3 SEQ ID NO:25) (Fab, V domains shown)
VH: B1 VH with Q101R, V108L
VL: B1 VL
B19: Li62 Fab (Fab, V domains shown)
VH: B1 VH with Q101H, Y102N, V108L
VL: B1 VL
B20: N-terminally PEGylated Li113 (Fab, V domains shown)
VH: B1 VH with Q101T, F106L, V108L
VL: B1 VL
modifications: N-terminal 20 kDa methoxy-polyethyleneglycol propionaldehyde; chain carrying it not stated

Each binder was assayed against LINGO-1 (human) (UniProt Q96FE5) (assay: ELISA).

Row | ELISA Signal | Binder
1 | 3 | B1
2 | 3 | B2
3 | 3 | B3
4 | 3 | B4
5 | 3 | B5
6 | 3 | B6
7 | 0.5 | B7
8 | 3 | B8
9 | 3 | B9
10 | 3 | B10
11 | 3 | B11
12 | 3 | B12
13 | 3 | B13
14 | 3 | B14
15 | 3 | B15
16 | 3 | B16
17 | 3 | B17
18 | 3 | B18

Each binder was assayed against LINGO-1 (human) (UniProt Q96FE5) (assay: LINGO-1 ELISA).

Row | EC50 | Binder
19 | 0.26 nM | B19
20 | 0.09 nM | B11

The binders below were run against LINGO-1 (human) (UniProt Q96FE5) (assay: affinity vs parent Li62 Fab; method not stated).

Row | Fold-Improvement | Binder
21 | 8 fold | B1
22 | 8 fold | B2
23 | 9 fold | B3
24 | 11 fold | B4
25 | 12 fold | B5
26 | 8 fold | B6
27 | 6 fold | B7
28 | 5 fold | B8
29 | 9 fold | B9
30 | 8 fold | B10
31 | 8 fold | B11
32 | 15 fold | B12
33 | 10 fold | B13
34 | 8 fold | B14
35 | 9 fold | B15
36 | 16 fold | B16
37 | 10 fold | B17
38 | 8 fold | B18

These binders were tested against LINGO-1 (human) (UniProt Q96FE5) (assay: FACS binding to LINGO-1; the value is listed under the plot without a name and agrees with the half-maximal point of the curve (x axis: Ab (ng/ml) log)).

Row | EC50 | Binder
39 | 0.182 mg/L | B20
